Source: patent KR20160093502A (dated 2016)

Molecular target: T1, EPRS (glutamyl-prolyl tRNA synthetase), human 세포에서 원래 발현된 EPRS (Hela cell lysate) (human, UniProt P07814 1-1512)
T1 construct: Endogenous protein in 50 ug HeLa lysate, denatured on a western blot; also called endogenous EPRS in HeLa cell lysate
Experiment: western blot on HeLa cell lysate (clones from panning on EPRS WHEP domain antigen)

T1 sequence (P07814 whole entry): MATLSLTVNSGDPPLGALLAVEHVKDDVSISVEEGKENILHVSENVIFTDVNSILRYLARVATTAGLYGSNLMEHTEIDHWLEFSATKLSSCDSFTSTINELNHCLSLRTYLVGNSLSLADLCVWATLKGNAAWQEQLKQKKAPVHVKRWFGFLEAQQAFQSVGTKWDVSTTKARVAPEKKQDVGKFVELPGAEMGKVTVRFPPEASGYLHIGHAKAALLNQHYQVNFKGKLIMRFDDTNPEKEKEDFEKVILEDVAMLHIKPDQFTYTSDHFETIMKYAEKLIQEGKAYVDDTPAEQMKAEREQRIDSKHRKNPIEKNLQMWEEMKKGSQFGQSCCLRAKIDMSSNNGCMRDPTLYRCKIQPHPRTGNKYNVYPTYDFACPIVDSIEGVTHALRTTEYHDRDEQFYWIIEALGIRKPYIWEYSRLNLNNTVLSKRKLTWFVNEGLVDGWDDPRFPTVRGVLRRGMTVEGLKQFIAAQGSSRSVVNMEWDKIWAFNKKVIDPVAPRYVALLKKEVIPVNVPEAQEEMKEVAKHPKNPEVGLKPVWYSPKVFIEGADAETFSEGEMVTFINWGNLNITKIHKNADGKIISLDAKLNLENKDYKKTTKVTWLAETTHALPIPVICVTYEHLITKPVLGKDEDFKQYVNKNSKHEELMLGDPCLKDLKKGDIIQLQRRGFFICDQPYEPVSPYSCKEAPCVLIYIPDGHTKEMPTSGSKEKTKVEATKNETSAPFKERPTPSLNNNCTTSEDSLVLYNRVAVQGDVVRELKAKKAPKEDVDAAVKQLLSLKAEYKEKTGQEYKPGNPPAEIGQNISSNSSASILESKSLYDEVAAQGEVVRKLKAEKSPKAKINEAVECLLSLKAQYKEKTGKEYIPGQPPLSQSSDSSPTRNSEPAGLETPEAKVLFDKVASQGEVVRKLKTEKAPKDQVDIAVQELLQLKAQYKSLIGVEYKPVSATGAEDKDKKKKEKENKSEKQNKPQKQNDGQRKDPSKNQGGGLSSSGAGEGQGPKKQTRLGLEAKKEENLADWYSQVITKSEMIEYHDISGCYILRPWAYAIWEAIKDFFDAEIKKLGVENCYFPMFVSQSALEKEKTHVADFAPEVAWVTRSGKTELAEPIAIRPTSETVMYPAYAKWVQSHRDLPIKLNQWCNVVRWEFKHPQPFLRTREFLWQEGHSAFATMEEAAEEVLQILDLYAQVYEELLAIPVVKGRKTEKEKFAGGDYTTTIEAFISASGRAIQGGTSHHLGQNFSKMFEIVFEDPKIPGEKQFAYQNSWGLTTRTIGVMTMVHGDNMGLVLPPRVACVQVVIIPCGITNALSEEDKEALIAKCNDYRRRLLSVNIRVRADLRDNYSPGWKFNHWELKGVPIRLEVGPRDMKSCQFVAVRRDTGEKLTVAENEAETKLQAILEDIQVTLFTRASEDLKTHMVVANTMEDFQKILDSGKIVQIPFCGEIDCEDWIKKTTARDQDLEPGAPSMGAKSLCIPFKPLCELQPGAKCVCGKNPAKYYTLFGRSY

| binding result | Binder |
| --- | --- |
| binds | SEQ ID NO 42 (scFv) scFv: EVQLLESGGGLVQPGGSLRLSCAVSGFTFSSYYMSWVRQAPGKGLEWVSLISPGSGSIYYADSVKGRFTISRDNSKNTLYLQMNSLRAEDTAVYYCARTGWLFDYWGQGTLVTVNSGGGGSGGGGSGGGGSQSVLTQPPSASGTPGQRVTISCSGSSSNIGNNAVNWYQQLPGTAPKLLIYSNSHRPSGVPDRFSGSKSGTSASLAISGLRSEDEADYYCGSWDASLNGYVFGGGTKLTVL |
| binds | SEQ ID NO 28 (scFv) scFv: EVQLLESGGGLVQPGGSLRLSCAASGFTFSNYAMSWVRQAPGKGLEWVSGIYHGGGNKYYADSVKGRFTISRDNSKNTLYLQMNSLRAEDTAVYYCARTRTLFDYWGQGTLVTVSSGGGGSGGGGSGGGGSQSVLTQPPSASGTPGQRVTISCTGSSSNIGNNAVSWYQQLPGTAPKLLIYANSHRPSGVPDRFSGSKSGTSASLAISGLRSEDEADYYCGTWDASLSGYVFGGGTKLTVL |
